Laboratory results published in publication PMC13250567, “U1 snRNP and RNA polymerase II interaction is predominantly mediated by Prp40 rather than U1-70K in yeast” (Nucleic Acids Research, 2026).
Blank lines part the entries; values can stand above or below the binder they belong to.

What was measured:
Details in all cases: both partners purified
[1] = target: T1, yeast RNA polymerase II, purified (CBP tag on RPB3) (yeast, UniProt P04050 1-1733; P08518 1-1224; P16370 1-318; P20433 1-221; P20434 1-215; P20435 …); assay: pull-down; GST fusion proteins on glutathione-Sepharose incubated with 1 μM purified pol II, 1.5 h, 4 °C; cleaved off with PreScission protease; Western blot with 8WG16 (RPB1) and anti-CBP
T1 construct: RPB1, largest subunit of yeast pol II, wild type with its CTD (26 heptapeptide repeats); RPB2 subunit of yeast pol II; RPB3 subunit of yeast pol II, TAP-tagged (CBP-TEV-protein A); CBP is left after TEV cleavage; RPB4 subunit of yeast pol II; RPB5 subunit of yeast pol II; RPB6 subunit of yeast pol II; RPB7 subunit of yeast pol II; RPB8 subunit of yeast pol II; RPB9 subunit of yeast pol II; RPB10 …

[2] = target: T1, yeast RNA polymerase II, purified (CBP …); assay: pull-down; protein A-tagged protein on IgG resin incubated with 0.4 μM purified pol II in 20 mM Tris–HCl pH 8.0, 150 mM NaCl, 0.5 mM DTT, 1.5 h, 4 °C; Western blot with 8WG16 (RPB1) and anti-CBP (RPB3-CBP)
[3] = target: T1, yeast RNA polymerase II, purified (CBP …); assay: cross-linking; purified pol II and Prp40 FF4-6 at ~1:1.5 molar ratio in 20 mM HEPES pH 7.5, 150 mM NaCl, 1 mM MgCl2, 0.5 mM TCEP; 1 mM DSSO or 2 mM SDA, 1 h, 4 °C; LC-MS/MS

binding result [1]: binds
B1: GST-fused Prp40 FF4 (351–415) (domain or fragment, S. cerevisiae, UniProt P33203 351-415, looked up)
chain: NYTRDRIARDNFKSLLREVPIKIKANTRWSDIYPHIKSDPRFLHMLGRNGSSCLDLFLDFVDEQR
notes: yeast Prp40 residues 351–415 (FF4); also called GST-FF4; source: E. coli (pGEX-6p-1), purified as GST fusion protein; not shown: GST, N-terminal, kept

binding result [1]: binds
B2: GST-fused Prp40 FF1 (134–189) (domain or fragment, S. cerevisiae, UniProt P33203 134-189, looked up)
chain: EAEKEFITMLKENQVDSTWSFSRIISELGTRDPRYWMVDDDPLWKKEMFEKYLSNR
notes: yeast Prp40 residues 134–189 (FF1); also called GST-FF1; source: E. coli (pGEX-6p-1), purified as GST fusion protein; not shown: GST, N-terminal, kept

binding result [1]: binds
B3: GST-fused Prp40 FF3 (270–335) (domain or fragment, S. cerevisiae, UniProt P33203 270-335, looked up)
chain: KTQALKELREYLNGIITTSSSETFITWQQLLNHYVFDKSKRYMANRHFKVLTHEDVLNEYLKIVNT
notes: yeast Prp40 residues 270–335 (FF3); also called GST-FF3; source: E. coli (pGEX-6p-1), purified as GST fusion protein; not shown: GST, N-terminal, kept

binding result [2]: binds
B4: protein A-tagged Prp40 (full length) (natural protein, S. cerevisiae, UniProt P33203 1-583, looked up)
chain: MSIWKEAKDASGRIYYYNTLTKKSTWEKPKELISQEELLLRENGWKAAKTADGKVYYYNPTTRETSWTIPAFEKKVEPIAEQKHDTVSHAQVNGNRIALTAGEKQEPGRTINEEESQYANNSKLLNVRRRTKEEAEKEFITMLKENQVDSTWSFSRIISELGTRDPRYWMVDDDPLWKKEMFEKYLSNRSADQLLKEHNETSKFKEAFQKMLQNNSHIKYYTRWPTAKRLIADEPIYKHSVVNEKTKRQTFQDYIDTLIDTQKESKKKLKTQALKELREYLNGIITTSSSETFITWQQLLNHYVFDKSKRYMANRHFKVLTHEDVLNEYLKIVNTIENDLQNKLNELRLRNYTRDRIARDNFKSLLREVPIKIKANTRWSDIYPHIKSDPRFLHMLGRNGSSCLDLFLDFVDEQRMYIFAQRSIAQQTLIDQNFEWNDADSDEITKQNIEKVLENDRKFDKVDKEDISLIVDGLIKQRNEKIQQKLQNERRILEQKKHYFWLLLQRTYTKTGKPKPSTWDLASKELGESLEYKALGDEDNIRRQIFEDFKPESSAPTAESATANLTLTASKKRHLTPAVELDY
notes: yeast Prp40, full length, 583 residues; A TEV site lies between protein A and Prp40; also called ProtA-Prp40; source: yeast BCY123 (pRS414/GPD-protA-TEV-PRP40), purified on IgG resin; not shown: protein A, N-terminal, kept

binding result [1]: binds
B5: GST-fused Prp40 FF2 (204–269) (domain or fragment, S. cerevisiae, UniProt P33203 204-269, looked up)
chain: FKEAFQKMLQNNSHIKYYTRWPTAKRLIADEPIYKHSVVNEKTKRQTFQDYIDTLIDTQKESKKKL
notes: yeast Prp40 residues 204–269 (FF2); also called GST-FF2; source: E. coli (pGEX-6p-1), purified as GST fusion protein; not shown: GST, N-terminal, kept

binding result [1]: binds
B6: GST-fused Prp40 FF6 ext (488–583) (domain or fragment, S. cerevisiae, UniProt P33203 488-583, looked up)
chain: NERRILEQKKHYFWLLLQRTYTKTGKPKPSTWDLASKELGESLEYKALGDEDNIRRQIFEDFKPESSAPTAESATANLTLTASKKRHLTPAVELDY
notes: yeast Prp40 residues 488–583 (FF6 and the extension downstream of it, to the C-terminus); also called 6 extension; FF6 extension; source: E. coli (pGEX-6p-1), purified as GST fusion protein; not shown: GST, N-terminal, kept

binding result [3]: binds
B7: Prp40 FF4-6 (351–552) (domain or fragment, S. cerevisiae, UniProt P33203 351-552, looked up)
chain: NYTRDRIARDNFKSLLREVPIKIKANTRWSDIYPHIKSDPRFLHMLGRNGSSCLDLFLDFVDEQRMYIFAQRSIAQQTLIDQNFEWNDADSDEITKQNIEKVLENDRKFDKVDKEDISLIVDGLIKQRNEKIQQKLQNERRILEQKKHYFWLLLQRTYTKTGKPKPSTWDLASKELGESLEYKALGDEDNIRRQIFEDFKPE
notes: yeast Prp40 residues 351–552 (FF4 to FF6); also called Prp40 FF4-6 protein; source: E. coli (pGEX-6p-1), purified
